From patent US20250197855A1 (ALNYLAM PHARMACEUTICALS, published 2025)

What was measured:
[1] = target: T1, C1q (mouse, in APPPS1-21 and WT mouse brain cortex sections) (mouse, UniProt P98086 23-245; P14106 26-253; Q02105 30-246); assay: proximity ligation assay (Duolink PLA) on brain cortex sections of 16 weeks old APPPS1-21 mice
T1 construct: Endogenous tissue protein detected with mouse anti-C1q (HM1096BT, Hycult)
Method: Protein-protein binding ex vivo was performed by Duolink® PLA kit (DUO92101 SIGMA).
PLA signal was detected by Duolink® PLA kit according to manufacturer's protocol. Leica confocal microscope (SP8, Leica, Germany) equipped with a 100× oil objective (NA 1.4) were used for image. 6 fields per each sample were recorded, 3D reconstructions and the number of PLA signals per volume were performed using LAS-X software package (Leica, v1.2, Germany).
APPPS1-21 mice were treated with the liver-specific C5 siRNA AD-61679.

[2] = target: T2, Aβ in APPPS1-21 mouse brain (from the human APP transgene bearing the Swedish mutation) (human (transgene in mouse), UniProt P05067 672-713); assay: proximity ligation assay (PLA) on APPPS1-21 mouse brain sections
T2 construct: also called methoxy-X04+ Aβ plaque
T2 sequence (P05067 672-713 limits assumed, change not shown): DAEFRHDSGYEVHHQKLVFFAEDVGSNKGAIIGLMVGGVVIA

T1 sequence (P98086 23-245 limits assumed, chain 1 of 3): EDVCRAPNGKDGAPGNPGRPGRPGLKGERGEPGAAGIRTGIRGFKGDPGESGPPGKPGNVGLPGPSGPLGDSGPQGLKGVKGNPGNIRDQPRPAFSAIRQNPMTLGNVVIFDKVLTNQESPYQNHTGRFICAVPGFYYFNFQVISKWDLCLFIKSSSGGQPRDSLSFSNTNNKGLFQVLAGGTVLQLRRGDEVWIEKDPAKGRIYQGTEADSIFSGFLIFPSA
T1 sequence (P14106 26-253 limits assumed, chain 2 of 3): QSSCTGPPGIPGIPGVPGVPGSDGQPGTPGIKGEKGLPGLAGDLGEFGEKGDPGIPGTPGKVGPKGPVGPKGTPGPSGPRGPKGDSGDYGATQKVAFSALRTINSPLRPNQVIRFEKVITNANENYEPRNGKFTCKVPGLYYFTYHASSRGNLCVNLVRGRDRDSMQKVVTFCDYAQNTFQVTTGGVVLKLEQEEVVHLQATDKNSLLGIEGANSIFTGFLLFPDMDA
T1 sequence (Q02105 30-246 limits assumed, chain 3 of 3): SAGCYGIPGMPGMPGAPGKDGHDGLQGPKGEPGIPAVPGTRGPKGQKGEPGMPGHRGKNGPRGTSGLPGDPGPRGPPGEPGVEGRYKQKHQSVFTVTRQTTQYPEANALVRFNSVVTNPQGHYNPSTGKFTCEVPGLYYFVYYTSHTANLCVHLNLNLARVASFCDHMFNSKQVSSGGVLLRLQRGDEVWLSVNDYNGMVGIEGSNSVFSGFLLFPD

B1: apolipoprotein E (mouse, in APPPS1-21 and WT mouse brain cortex sections) (other, UniProt P08226 19-311, looked up)
chain: EGEPEVTDQLEWQSNQPWEQALNRFWDYLRWVQTLSDQVQEELQSSQVTQELTALMEDTMTEVKAYKKELEEQLGPVAEETRARLGKEVQAAQARLGADMEDLRNRLGQYRNEVHTMLGQSTEEIRARLSTHLRKMRKRLMRDAEDLQKRLAVYKAGAREGAERGVSAIRERLGPLVEQGRQRTANLGAGAAQPLRDRAQAFGDRIRGRLEEVGNQARDRLEEVREHMEEVRSKMEEQTQQIRLQAEIFQARLKGWFEPIVEDMHRQWANLMEKIQASVATNPIITPVAQENQ
notes: Detected with rabbit anti-mouse ApoE (ab183597); also called ApoE
B1: binds [1]; binds [2].
